Assay results taken from paper PMC4663749, “Structure of Mycobacterium thermoresistibile GlgE defines novel conformational states that contribute to the catalytic mechanism” (Scientific Reports, 2015).

Molecular target: the molecule itself
Assay: crystal structure; three structures of GlgE (apo form, maltose co-crystallization, maltose-1P co-crystallization); sitting-drop vapour diffusion at 291 K, ~7 mg/ml protein; one dimer per asymmetric unit

B1: Mycobacterium thermoresistibile GlgE (enzyme, UniProt G7CL00 1-696, looked up)
chain: MAGRIVIDDVQPVVSNGRYPAKAVVGEVVPVAATVWREGHDAVAATLVVRYHGTTYPDLADPPPGVPGADRTAVPIGDVMTPAAPVKPQRLPMSPGHTPDVFHGHFTPDRVGLWTYRVDGWGDPIASWRHNVTAKLDAGQGESELNNDLLVGARLLERAATGVPRELREALLEAAAALRAPGDPFTRAGAALSAEVSDLLAEYPLREFVTRGEQYGVWVDRPEARFSSWYEMFPRSTGGWDAEGRPVHGTFATAAEALPRIARMGFDVVYLPPIHPIGKVHRKGRNNSVTAAPGDVGSPWAIGSDEGGHDAVHPQLGTIEDFDEFVASARDLGLEVALDLALQCAPDHPWAREHPEWFTVLPDGSIAYAENPPKKYQDIYPLNFDNDPAGIYQEVLRVVRFWISHGVNIFRVDNPHTKPPNFWAWLIGQIKNENPDVLFLSEAFTRPARLYGLAKLGFTQSYTYFTWRTSKWELTEFGQEIAAKADIARPNLFVNTPDILHESLQHGGPGMFAIRAVLAATMGPAWGVYSGYELFENQPVRPGSEEYLNSEKYELRPRDFESALARGESLEPFLTRLNEIRRLHPALRELRTIRFHHVDNDALLAYSKFDPGTGDTVLVVVTLNPFGAEEATLWLDMPELGMEPYDRFWVRDEITGEEYQWGQANYVRLDPAKAVAHVLNMPLIPADKRLQLLRRE
notes: GlgE (alpha-1,4-glucan:maltose-1-phosphate maltosyltransferase) of Mycobacterium thermoresistibile DSM 44167; glgE gene amplified from chromosomal DNA with a forward primer that begins at the GTG start codon and a reverse primer that ends at the stop codon; The construct with the cleavable N-terminal SUMO tag gave all crystals; also called maltosyl transferase; source: E. coli BL21(DE3), purified …
  stoichiometry N: 2
